Test results: paper PMC8594432, “One-step, kit-based radiopharmaceuticals for molecular SPECT imaging: a versatile diphosphine chelator for ^99mTc radiolabelling of peptides” (Dalton Transactions (Cambridge, England : 2003), 2021)

Type: physicochemical
Description: Reaction of RGD with BMA[21,22] in a basic solution of DMF followed by semi-preparative reverse-phase C18 HPLC provided the diphosphine conjugate DP-RGD (Scheme 1) in ≥95% purity and 86% yield. DP-RGD was characterised by ^1H, ^13C and ^31P NMR, analytical HPLC and HR-ESI-MS (Fig. S1–S6 and Tables S1, S2 ^†).

Compound: N=C(N)NCCC[C@@H]1NC(=O)[C@H](CCCCNC(=O)/C(=C(\C(=O)O)P(c2ccccc2)c2ccccc2)P(c2ccccc2)c2ccccc2)NC(=O)[C@@H](Cc2ccccc2)NC(=O)[C@H](CC(=O)O)NC(=O)CNC1=O [DP-RGD]
- stability in acidic solutions (in words): decomposed to re-form RGD and BMA
- stability to oxidation in solution (in words): slowly oxidised in solution to phosphine oxide derivatives
- stability to oxidation in the solid state (in words): stable to oxidation
